Among the data in PMC12575831 are Kd values, retold here.

pKd: −log10 of the molar value.

The test system of this data set is PUS7 (pseudouridine synthase 7) (Homo sapiens). The data set is described as follows: EMSA. Conditions: 1 mM Mg2+; 40 nM RNA, 0-500 nM PUS7; none (unmodified IVT, U250); 10 mM Tris-HCl pH 7.5, 100 mM KCl, 1 mM MgCl2, 0.1 mM DTT, 5% glycerol; 37 °C 30 min; gel 4-20% TBE at 4 °C. A general note: Mobility shift assays separate free from complexed probe on a gel.

Turning to in vitro-transcribed 7SK snRNA, the pKd (in general, the Kd on a negative log10 scale, so that one unit is a factor of ten) was 7.01.
